# From US20260028391A1 (HUMABS BIOMED, published 2026)
# Changes are numbered by the printed parent chain. Names may count otherwise.
# B1: MPH12-v16 (VH-FRGL-S63A/VL-D25S) (antibody, V domains shown)
# VH: QVQLVESGGGLVKPGGSLRLSCAASGFTFSGFYMKWIRQAPGKGLEWVSSISASGSYTNYADAVEGRFTISRDNAKNSLYLQMNSLRAEDTAVYYCARGDSYCGASACHGEFFHKWGQGTLVTVSS
# VL: QSVLTQPPSVSGAPGQRVTISCTGSSSNIGADFDVHWYQQLPGTAPKLLIYGNINRPSGVPDRFSGSRSGTSAFLAITRLQAEDEADYYCQSYDRSLHYVFGAGTKVTVL
# notes: also called MPH12 VH-FRGL-S63A / MPH12 VL-D25S
# B2: MPH12-v2 (VH C111/C112.2 variant of Tables 18 and 19) (antibody, V domains shown)
# VH: B1 VH with A23V, A63S, I70V, Y80F, Q82L, N84S, C103A, C108A
# VL: B1 VL with S26D
# B3: MPK158 (antibody, V domains shown)
# VH: EVQLVESGGGLVKPGGSLRLSCAASGFSISGFYMIWIRQAPGKGLEWISDISASSSYIDYADSVKGRFTISRDNGQNTVHLLMNNLRADDTGVYYCAREQTPSPGPFDLWGQGTLVTVST
# VL: QPVLTQPPSVSGAPGQRVTISCTGRSSNIGAGYDVHWYQHLPGTSPKLLIYRNSNRPSGVPDRFSGSTSGTSASLAITGLQADDEADYYCQAYDRILGGWAFGGGTKLTVL
# B4: MPK204 (antibody, V domains shown)
# VH: QVQLVESGGGLVKPGGSLRLSCEASGLSLSGYYMIWIRQAPGKGLEWISSISSSSNYIDYADSVKGRFTISRHNGQNTLYLQMNSLRVEDTAVYYCATEQTPSPGPFDLWGQGTLVTVSS
# VL: QSVLTQPPSVSGAPGQRVTISCTGTSSNIGTGYDVHWYQQFPGTSPKLLIYRNTNRPSGVPDRFSGSKSGSSASLAIAGLQAEDEADYYCQSYDRSVSGWVFGGGTKLTVL
# B5: MPK133 (antibody, V domains shown)
# VH: QVQLVQSGGGLVKPGGSLRLSCAASEFSFSGYFMIWIRQAPGKGLEWISYISGSSTYTNYADSVKGRFTISRDNAQNTLYLEMNSLRAEDTGVYYCATEQVPSPGPFDLWGQGTLVTVSS
# VL: B4 VL with T25S, T31A, T44R, K47T, K68Q, A78T, S96T, V97L, V101A, L108V
# B6: MPK146 (antibody, V domains shown)
# VH: QVQLVESGGGLVKPGGSLRLSCAASGFTFSGYYMIWIRQAPGKGLEWIASISGSSNYIDYADSVRGRFTISRDNARNILDLQMNSLRAGDTALYYCATEQVPSPGPFDLWGQGTLVTVSS
# VL: B4 VL with T25S, S26N, I29L, T31A, S65A, S71T, A78T, V97L
# B7: MPK176-v1.3 (antibody, V domains shown)
# VH: QVQLVQSGAEVKKPGASVRVSCKASGYTLTAYGISWVRQAPGQGLEWMGWISPKHGNTHYAQRFQGRVTMTTDTSTSTAYMELRSLRPDDTAVYFCAREGVDIMAVPWYFDYWGQGTLVAVSS
# VL: SYVLTQPPSVSVAPGQTARISCGGNNIGSKSVHWYQQKPGQAPVVVVYDDSKRPSGIPERFSGSNSGNTATLTISGVEAGDEADYFCQVWDSATDHWVFGGGTKLTVL
# Key:
# DS-Cav1 RSV F [1] = target: T1, DS-Cav1 RSV F (respiratory syncytial virus); assay: ELISA on DS-Cav1 RSV F
# T1 construct: also called DC-VCav1
# [2] = target: T2, MPV fusion glycoprotein without the D280N mutation (MPV-F D280) (metapneumovirus); assay: biolayer interferometry (BLI), rIgG1 with M428L/N434S
# T2 construct: also called MPV F Non-D280N; MPV-F wt
# [3] = target: RSV fusion glycoprotein (RSV-F) (respiratory syncytial virus); assay: as above
# [4] = target: T3, MPV fusion glycoprotein with the D280N mutation (MPV-F N280) (metapneumovirus); assay: as above
# T3 construct: also called MPV F D280N; MPV-F D280N
# [5] = target: fusion glycoprotein (F) of the MPV (non-D280N) used in the GFP-based neutralization assay of Table 23 (metapneumovirus); assay: cell-based or functional assay
# [6] = target: fusion glycoprotein (F) of the RSV used in the GFP-based neutralization assay of Table 23 (respiratory syncytial virus); assay: cell-based or functional assay
# DS-Cav1 RSV F [7] = target: DS-Cav1 RSV F (respiratory syncytial virus (RSV); …, UniProt P13843 26-513); assay: ELISA on RSV-F Ds-Cav1, 1 ug/ml
# [8] = target: fusion glycoprotein (F) of MPV A1/6621 (metapneumovirus A1/6621); assay: cell-based or functional assay
# [9] = target: fusion glycoprotein of the MPV D280 used in the neutralization assay of Example 3 (metapneumovirus (strain )); assay: cell-based or functional assay
# [10] = target: fusion glycoprotein of the RSV used in the neutralization assay of Example 1 (respiratory syncytial virus (strain not …)); assay: cell-based or functional assay
# RSV-A F = target: T4, RSV-A F (RSV A); assay: BLI
# T4 construct: also called RSV F A
# RSV-B F = target: T5, RSV-B F (RSV B); assay: BLI
# T5 construct: also called RSV F B
# [11] = target: RSV A fusion glycoprotein (F), virus of the neutralisation assays of Tables 54 and 57 (RSV A); assay: cell-based or functional assay
# RSV F B N208S = target: T6, RSV F B N208S (RSV B); assay: FACS, % binding to RSV F B variants
# T6 construct: whole, on cells; also called mutant N208S
# RSV F B, B Ref = target: T7, RSV F B, B Ref (RSV B); assay: FACS, % binding to RSV F B variants
# T7 construct: whole, on cells
# RSV F B N201S = target: T8, RSV F B N201S (RSV B); assay: FACS, % binding to RSV F B variants
# T8 construct: whole, on cells
# RSV F B K68N-N208S = target: T9, RSV F B K68N-N208S (RSV B); assay: FACS, % binding to RSV F B variants
# T9 construct: whole, on cells
# RSV F B K68N-N201S = target: T10, RSV F B K68N-N201S (RSV B); assay: FACS, % binding to RSV F B variants
# T10 construct: whole, on cells
# RSV F B N208D = target: T11, RSV F B N208D (RSV B); assay: FACS, % binding to RSV F B variants
# T11 construct: whole, on cells
# RSV F B S443P = target: T12, RSV F B S443P (RSV B); assay: FACS, % binding to RSV F B variants
# T12 construct: whole, on cells; also called mutant S443P
# RSV F A S443P-K445N = target: T13, RSV F A S443P-K445N (RSV A, strain A2, UniProt P03420 26-574); assay: FACS, % binding to RSV F A variants
# T13 construct: whole, on cells
# RSV F A G446E = target: T14, RSV F A G446E (RSV A, strain A2, UniProt P03420 26-574); assay: FACS, % binding to RSV F A variants
# T14 construct: whole, on cells
# RSV F A, A2 Ref = target: T15, RSV F A, A2 Ref (RSV A, strain A2, UniProt P03420 26-574); assay: FACS, % binding to RSV F A variants
# T15 construct: whole, on cells
# RSV F A L203I = target: T16, RSV F A L203I (RSV A, strain A2, UniProt P03420 26-574); assay: FACS, % binding to RSV F A variants
# T16 construct: whole, on cells
binder,measurement,setting,value
B1,EC50,DS-Cav1 RSV F [1],0.0156 µg/mL
same,Kd,[2],0.038 nM
same,Kd,[3],0.41 nM
same,Kd,[4],0.54 nM
same,"MPV IC50 (ng/mL), GFP-based in vitro neutralization",[5],26.8 ng/mL
same,"RSV IC 50 (ng/mL), GFP-based in vitro neutralization",[6],50.3 ng/mL
B2,EC50 (read off the curve),DS-Cav1 RSV F [7],~0.1 µg/mL
same,"MPV IC50 (nM), neutralization of MPV A1/6621",[8],0.552 nM
B3,MPV D280 Neutralization - IC50,[9],0.006 µg/mL
same,RSV Neutralization - IC50,[10],0.0182 µg/mL
B4,MPV D280 Neutralization - IC50,[9],0.006 µg/mL
same,RSV Neutralization - IC50,[10],0.0121 µg/mL
B5,MPV D280 Neutralization - IC50,[9],0.0035 µg/mL
same,RSV Neutralization - IC50,[10],0.0211 µg/mL
B6,MPV D280 Neutralization - IC50,[9],0.0054 µg/mL
same,RSV Neutralization - IC50,[10],0.0166 µg/mL
B7,Kd,RSV-A F,0.136 nM
same,Kd,RSV-B F,0.0256 nM
same,"IC50, neutralization of RSVA",[11],0.00394 µg/mL
same,% binding,RSV F B N208S,60.4%
same,% binding,"RSV F B, B Ref",39.9%
same,% binding,RSV F B N201S,60.2%
same,% binding,RSV F B K68N-N208S,57.9%
same,% binding,RSV F B K68N-N201S,60%
same,% binding,RSV F B N208D,53.6%
same,% binding,RSV F B S443P,33.8%
same,% binding,RSV F A S443P-K445N,0.036%
same,% binding,RSV F A G446E,0.017%
same,% binding,"RSV F A, A2 Ref",78.1%
same,% binding,RSV F A L203I,56.1%
